# Assay results taken from US20030219839A1 (published 2003).
# Experiments:
# rat PDGF BB = rat PDGF BB (rat, UniProt Q05028 74-182); assay: solid phase ELISA: plate coated with the named form of PDGF, serial dilutions of mouse C1 Fab (axis in dilutions 1/x, no mass unit), OD
# [1] = target: T1, recombinant human platelet derived growth factor (PDGF-BB) (human, UniProt P01127 82-190); assay: BIAcore SPR, cytokine immobilised via primary amines, antibody as analyte
# T1 construct: also called human PDGF-BB; PDGF-BB cytokine
# T1 sequence (P01127 82-190): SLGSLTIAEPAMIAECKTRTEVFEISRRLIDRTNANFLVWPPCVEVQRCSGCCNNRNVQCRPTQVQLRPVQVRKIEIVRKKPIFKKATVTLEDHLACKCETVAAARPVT
# Description: BIAcore analysis of the original and humanized anti-PDGF clones was performed according to standard procedures. The cytokine was immobilized on the BIAchip by chemical linking via primary amines and the binding behavior of the antibodies was analyzed over 30 min.
# [2] = target: T1, recombinant human platelet derived …; assay: competition ELISA: antibody pre-incubated with 10 ng/ml PDGF-BB, then added to a plate coated with PDGF receptor beta/Fc; receptor-bound PDGF-BB detected by biotinylated anti-PDGF-BB antibody and streptavidin-alkaline phosphatase, OD405; blocked partner: PDGF receptor beta/Fc
# Description: The ability of the rabbit scFvs to compete with the PDGF-1 receptor for binding to the PDGF-BB cytokine was determined in a competition assay. Binding of the scFvs to their target epitope on the PDGF-BB cytokine prevents PDGF-BB binding to the PDGF receptor coated on the plates. High protein binding 96-well plates were coated with 10 ng/well of recombinant human PDGF receptor beta/Fc chimera (R&D Systems, MN) in PBS overnight at 4° C. The plates were blocked with 5% sucrose/1% BSA/PBS for 1 h at 37° C. Serial dilutions of purified anti-PDGF-BB antibody were incubated with 10 ng/ml of recombinant human PDGF-BB at room temperature for 30 minutes before being added to the blocked and washed plates. After 2 h at room temperature, the plates were washed with PBS/0.05% Tween followed by another 2-hour incubation with biotinylated anti-PDGF-BB antibody (R&D Systems, MN) at room temperature. Next, streptavidin-alkaline phosphatase (Pierce, Rockford, Ill.) was added to the plates and incubated for 30 minutes at room temperature. The plates were washed 3×with PBS/0.05% Tween and 3× with PBS. Sigma 104 substrate suspended in PNPP buffer was added after the final wash step and the signal at OD405 was determined. […] F3 was then selected for humanization.
# Sequence of rat PDGF BB (Q05028 74-182): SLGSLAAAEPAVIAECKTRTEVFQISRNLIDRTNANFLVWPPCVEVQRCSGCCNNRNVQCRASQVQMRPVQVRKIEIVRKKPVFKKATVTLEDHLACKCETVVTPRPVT
binder,measurement,setting,value
"C1 mouse anti-PDGF Fab (Fab, V domains shown, Mouse light chain and heavy chain Fd cloned in phagemid pRL4; purified over a Ni column; detected by an HA tag; also called mouse C1; murine antibody C1) VH: QVLLEQSGSELVRPGASVKLSCKASGYTFTSTWMNWVKKRPDQGLEWIGRIDPYDSETHYNQKFKDKAILTVDKSSSTAYMQLSRLTSEDSAVYYCARGGHMITPAMDYWGQGTSVTVSS VL: VQVLTQSPAIMSASPGEKVTITCTASSSVSYMHWFQQKPGTSPKLLIYSASNLASGVPARFSGSGSGTSYSLTISRMEAEDAATYYCQQRSSYPWTFGGGTKLEIKR",binding result,rat PDGF BB,no binding
same,Ka,[1],2.31e+09 M⁻¹
same,Kd,[1],433 pM
same,koff,[1],4.62e-05 s⁻¹
same,kon,[1],107000 M⁻¹ s⁻¹
same,IC50 (read off the curve),[2],~0.4 µg/mL
